From patent publication US20220169722A1 (WUXI BIOLOGICS IRELAND, published 2022)
Read-outs that look alike come from different tables or passages of the source.

Assays:
human CD4 = human CD4 (human, UniProt P01730 26-390, limits assumed); assay: ELISA, plates coated with human CD4, goat anti-human IgG Fc-HRP
Protocol: Cross-reactivity to human CD4 was measured by ELISA. Plates were coated with human CD4 at 1 μg/ml overnight at 4° C. After blocking and washing, 1 μg/ml of LAG-3 antibodies were added to the plates and incubated at room temperature for 1 h. The plates were then washed and subsequently incubated with goat-anti human IgG Fc-HRP for 45 min. After washing, TMB substrate was added and the color reaction was stopped by 2M HCl. The absorbance at 450 nm was read using a microplate reader.

[1] = biological target: T1, human LAG-3 on transfected cells (human, UniProt P18627 23-525); assay: FACS, serial dilutions on human LAG-3 transfected cells, PE-labeled secondary antibody
T1 construct: whole, on cells; Flp-In-293 or CHO-K1 cells transfected with full length human LAG-3; also called cell surface human LAG-3
T1 sequence (looked up): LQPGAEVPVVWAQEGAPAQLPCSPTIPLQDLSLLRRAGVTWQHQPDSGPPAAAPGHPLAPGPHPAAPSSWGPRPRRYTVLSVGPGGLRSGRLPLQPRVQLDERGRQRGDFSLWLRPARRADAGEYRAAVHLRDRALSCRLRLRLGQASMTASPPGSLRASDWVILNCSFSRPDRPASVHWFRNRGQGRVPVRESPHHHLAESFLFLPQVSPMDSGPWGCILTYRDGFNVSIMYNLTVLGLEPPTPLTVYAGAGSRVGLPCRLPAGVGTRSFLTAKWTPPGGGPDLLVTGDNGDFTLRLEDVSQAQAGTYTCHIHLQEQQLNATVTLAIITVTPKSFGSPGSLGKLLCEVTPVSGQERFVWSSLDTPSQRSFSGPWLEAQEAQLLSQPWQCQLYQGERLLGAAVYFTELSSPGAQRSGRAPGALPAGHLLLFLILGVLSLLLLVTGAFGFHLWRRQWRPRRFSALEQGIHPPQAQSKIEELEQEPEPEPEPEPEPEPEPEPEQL

[2] = biological target: T2, mouse Fc (mFc)-tagged human LAG-3 (human, UniProt P18627 23-450); assay: ELISA blocking: antibody pre-mixed with mFc-tagged human LAG-3, added to plates coated with human LSECtin (blocked ligand); detection goat anti-mouse IgG Fc-HRP
T2 construct: extracellular domain
T2 sequence (looked up): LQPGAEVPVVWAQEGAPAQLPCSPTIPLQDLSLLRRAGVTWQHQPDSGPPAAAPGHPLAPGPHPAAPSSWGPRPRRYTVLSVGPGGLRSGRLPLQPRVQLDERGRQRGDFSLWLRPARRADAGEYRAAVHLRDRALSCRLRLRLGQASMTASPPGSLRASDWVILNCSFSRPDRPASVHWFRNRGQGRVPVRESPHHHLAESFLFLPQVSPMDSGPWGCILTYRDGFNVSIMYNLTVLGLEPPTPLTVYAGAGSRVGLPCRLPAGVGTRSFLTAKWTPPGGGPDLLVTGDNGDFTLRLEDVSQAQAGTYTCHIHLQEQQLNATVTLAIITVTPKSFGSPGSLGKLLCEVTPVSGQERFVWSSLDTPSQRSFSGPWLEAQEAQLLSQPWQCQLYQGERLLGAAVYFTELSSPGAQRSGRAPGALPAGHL
Protocol: (§1) 96-well plates were coated with human LSECtin or Galectin-3 at 0.5 μg/ml overnight at 4° C., respectively. […] After blocking and washing, the mixture was transferred to the plates and incubated at room temperature for 1 h. The plates were then washed and subsequently incubated with the secondary antibody goat-anti Mouse IgG Fc-HRP for 1 h. After washing, TMB substrate was added and the color reaction was stopped by 2M HCl. The absorbance at 450 nm was read using a microplate reader.

[3] = biological target: T2, mouse Fc (mFc)-tagged human LAG-3; assay: ELISA blocking: antibody pre-mixed with mFc-tagged human LAG-3, added to plates coated with human Galectin-3 (blocked ligand); detection goat anti-mouse IgG Fc-HRP
Protocol: as §1

[4] = biological target: T1, human LAG-3 on transfected cells; assay: FACS affinity on transfected cells
[5] = biological target: T3, cynomolgus LAG-3 on transfected cells (cynomolgus monkey); assay: FACS affinity on transfected cells
T3 construct: whole, on cells; 293F cells transfected with cynomolgus LAG-3; also called cell surface cynomolgus LAG-3; monkey LAG-3

[6] = biological target: T4, human LAG-3 protein (SPR analyte) (human, UniProt P18627 23-450); assay: SPR Biacore 8K, Ab as ligand, LAG-3 as analyte
T4 construct: extracellular domain
T4 sequence (looked up): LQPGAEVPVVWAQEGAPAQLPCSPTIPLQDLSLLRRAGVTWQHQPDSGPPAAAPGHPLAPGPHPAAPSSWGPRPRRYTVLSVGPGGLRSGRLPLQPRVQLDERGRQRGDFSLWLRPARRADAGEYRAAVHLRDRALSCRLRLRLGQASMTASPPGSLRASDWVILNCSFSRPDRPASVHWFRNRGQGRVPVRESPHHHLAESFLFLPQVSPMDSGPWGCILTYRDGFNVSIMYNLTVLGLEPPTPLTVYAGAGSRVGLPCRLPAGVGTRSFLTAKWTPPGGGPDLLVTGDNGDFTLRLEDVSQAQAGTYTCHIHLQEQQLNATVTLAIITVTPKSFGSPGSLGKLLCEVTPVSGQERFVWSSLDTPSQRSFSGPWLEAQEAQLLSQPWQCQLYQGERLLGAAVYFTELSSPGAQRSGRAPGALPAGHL

[7] = biological target: T5, mouse LAG-3 protein (SPR analyte) (mouse, UniProt Q61790 24-442); assay: SPR Biacore 8K, Ab as ligand, LAG-3 as analyte
T5 construct: extracellular domain
T5 sequence (looked up): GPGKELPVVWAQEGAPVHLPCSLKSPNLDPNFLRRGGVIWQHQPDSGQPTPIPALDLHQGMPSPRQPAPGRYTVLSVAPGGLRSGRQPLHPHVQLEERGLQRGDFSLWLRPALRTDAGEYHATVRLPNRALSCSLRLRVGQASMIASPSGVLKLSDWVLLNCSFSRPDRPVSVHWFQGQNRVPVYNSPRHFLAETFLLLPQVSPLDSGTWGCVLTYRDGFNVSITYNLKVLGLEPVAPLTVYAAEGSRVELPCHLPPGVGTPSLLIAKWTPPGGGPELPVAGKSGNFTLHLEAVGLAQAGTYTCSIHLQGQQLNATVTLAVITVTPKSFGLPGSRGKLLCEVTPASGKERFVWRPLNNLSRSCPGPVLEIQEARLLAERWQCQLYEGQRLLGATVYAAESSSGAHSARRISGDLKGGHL

[8] = biological target: T6, mouse LAG-3 on transfected cells (mouse, UniProt Q61790 24-521); assay: FACS on mouse LAG-3 transfected cells
T6 construct: whole, on cells; Flp-In-CHO cells transfected with mouse LAG-3; also called cell surface mouse LAG-3; murine LAG-3
T6 sequence (looked up): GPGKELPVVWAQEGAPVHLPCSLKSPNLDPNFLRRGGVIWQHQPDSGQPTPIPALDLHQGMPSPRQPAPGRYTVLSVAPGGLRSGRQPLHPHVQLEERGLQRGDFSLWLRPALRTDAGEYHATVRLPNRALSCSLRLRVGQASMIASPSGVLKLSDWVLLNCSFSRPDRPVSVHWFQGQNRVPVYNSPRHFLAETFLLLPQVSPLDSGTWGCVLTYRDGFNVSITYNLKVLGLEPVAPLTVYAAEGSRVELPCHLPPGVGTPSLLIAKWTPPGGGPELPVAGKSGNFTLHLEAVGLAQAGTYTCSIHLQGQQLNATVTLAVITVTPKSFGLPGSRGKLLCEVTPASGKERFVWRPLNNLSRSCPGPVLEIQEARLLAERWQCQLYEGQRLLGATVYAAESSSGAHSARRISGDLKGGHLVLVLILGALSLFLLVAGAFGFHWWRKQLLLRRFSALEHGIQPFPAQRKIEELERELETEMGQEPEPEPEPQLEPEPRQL
Protocol: (§2) Similarly, cross-reactivity to cynomolgus or murine LAG-3 was tested by FACS with cyno or murine LAG-3 transfected cell lines.

[9] = biological target: T1, human LAG-3 on transfected cells; assay: FACS affinity on transfected cells; remark: listed apart in the source
[10] = biological target: T6, mouse LAG-3 on transfected cells; assay: FACS affinity on transfected cells
[11] = biological target: T3, cynomolgus LAG-3 on transfected cells; assay: FACS affinity on transfected cells; remark: listed apart in the source
[12] = biological target: T2, mouse Fc (mFc)-tagged human LAG-3; assay: FACS blocking: antibody pre-mixed with mFc-tagged human LAG-3, added to Raji cells; blocked ligand: human MHC-II on Raji cells; detection goat anti-mouse IgG Fc-PE
Protocol: The mixture was transferred into the 96-well plates seeded with Raji cells. Goat anti-mouse IgG Fc-PE antibody was used to detect the binding of LAG-3 protein to Raji cells. The mean fluorescence intensity (MFI) was evaluated by flow cytometry and analyzed by FlowJo.

[13] = biological target: T2, mouse Fc (mFc)-tagged human LAG-3; assay: ELISA blocking: antibody pre-mixed with mFc-tagged human LAG-3, added to plates coated with human LSECtin (blocked ligand); detection goat anti-mouse IgG Fc-HRP; remark: listed apart in the source
Protocol: as §1

[14] = biological target: T1, human LAG-3 on transfected cells; assay: FACS on human LAG-3 transfected cells with serum-treated antibody, PE-labeled goat anti-human IgG
Protocol: On indicated time points (day 0, day 1, day 4, day 7 and day 14), an aliquot of serum treated sample were removed from the incubator and snap frozen in liquid N2, and then stored at −80° C. until ready for test. All the samples were quickly thawed prior to the stability test. […] MFI of the cells was measured by a flow cytometry and analyzed by FlowJo.

[15] = biological target: T4, human LAG-3 protein (SPR analyte); assay: SPR Biacore 8K, Ab captured on anti-human Fc, LAG-3 as analyte
[16] = biological target: T5, mouse LAG-3 protein (SPR analyte); assay: as above
[17] = biological target: T2, mouse Fc (mFc)-tagged human LAG-3; assay: ELISA blocking: antibody pre-mixed with mFc-tagged human LAG-3, added to plates coated with human Galectin-3 (blocked ligand); detection goat anti-mouse IgG Fc-HRP; remark: listed apart in the source
Protocol: as §1

mFc-tagged mouse LAG-3 = biological target: T7, mFc-tagged mouse LAG-3 (mouse, UniProt Q61790 24-442); assay: FACS competition; blocks mFc-mouse LAG-3 binding to MHC-II on A20 cells
T7 construct: extracellular domain; also called mFc-tagged mouse protein
T7 sequence (looked up): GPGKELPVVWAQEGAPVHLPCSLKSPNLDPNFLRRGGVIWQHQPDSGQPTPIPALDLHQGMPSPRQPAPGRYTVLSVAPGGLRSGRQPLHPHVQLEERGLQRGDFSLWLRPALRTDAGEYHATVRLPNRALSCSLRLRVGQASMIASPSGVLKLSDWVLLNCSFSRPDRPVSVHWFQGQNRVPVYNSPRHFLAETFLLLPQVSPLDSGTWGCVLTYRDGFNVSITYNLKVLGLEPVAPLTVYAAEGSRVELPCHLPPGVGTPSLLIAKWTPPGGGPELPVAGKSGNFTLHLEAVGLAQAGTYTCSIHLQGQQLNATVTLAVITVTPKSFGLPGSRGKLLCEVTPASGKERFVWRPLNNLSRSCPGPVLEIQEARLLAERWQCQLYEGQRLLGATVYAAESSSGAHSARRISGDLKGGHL

[18] = biological target: T3, cynomolgus LAG-3 on transfected cells; assay: FACS, serial dilutions on cynomolgus LAG-3 transfected cells, PE-labeled secondary antibody
Protocol: as §2

[19] = biological target: T3, cynomolgus LAG-3 on transfected cells; assay: FACS on cynomolgus LAG-3 transfected cells
Protocol: as §2

B1: W3396-R2-2 (Fc fusion)
VHH: QVQLVESGGGVVQPGGSLRLSCAASGLTLSQYTMGWFRQAPGKERELVAAIHWTSSVTDYADSVYGRFTISRDDSKNTGYLQMNSLRAEDTAVYYCAATHYYTHRGPFDYWGQGTLVTVSS
Human CD4
  binding result: no binding (tested: 33.4 nM)
[1]
  EC50: 0.228 nM
[2]
  IC50: 1.61 nM
[3]
  IC50: 1.23 nM
[4]
  Kd: 0.46 nM
[5]
  Bmax: 300 pM
[6]
  Kd: 0.165 nM
[7]
  Kd: < 0.000575 nM
[8]
  EC50: 0.13 nM

B2: W3396-R2-13 (Fc fusion)
VHH: QVQLVESGGGVVQPGGSLRLSCAASGLTLSQYTMGWFRQAPGKERELVAAIHWTSSVTDYADSVRGRFTISRDDSKNTGYLQMNSLRAEDTAVYYCAATWYYTHRGSFDYWGQGTLVTVSS
[9]
  Bmax: 200 pM
  Kd: 0.92 nM
[10]
  Bmax: 53 pM
  Kd: 0.054 nM
[11]
  Bmax: 310 pM
  Kd: 5 nM
[12]
  IC50: 0.46 nM
Human CD4
  binding result: no binding (tested: 66.7 nM)
[13]
  IC50: 0.797 nM
[14]
  EC50 (read off the curve): ~0.2 nM
[15]
  Kd: 4.06 nM
  koff: 0.000197 s⁻¹
  kon: 48400 M⁻¹ s⁻¹
[16]
  Kd: < 0.000952 nM
  koff: < 1e-06 s⁻¹
  kon: 1.05e+06 M⁻¹ s⁻¹
[17]
  IC50: 1.29 nM
mFc-tagged mouse LAG-3
  IC50: 2.4 nM
[18]
  EC50: 2.16 nM
[19]
  EC50: 2.16 nM
